Type in all cases: biochemical
Assay [1] in a line: Small-scale anaerobic C—H amination with purified enzymes, azide 1. The conditions noted are these: catalyst loading 0.5 mol %; NADPH; anaerobic. On the procedure:
Activities are presented in TTN. […] Yields and enantioselectivies determined by HPLC analysis. * (S−R)/(S+R). nd=not determined.
Enzymes used as purified catalysts were expressed as previously described (Lewis, J. C. et al., Proc. Natl. Acad. Sci. U.S.A. 106, 16550-16555 (2009)), and were purified by anion-exchange chromatography (for holoenzymes) or Ni-NTA chromatography (for isolated heme domains). Concentrations of P450 or P411 enzymes were determined as previously reported (Omura, T. & Sato, R., J. Biol. Chem. 239, 2370-2378 (1964); Vatsis, K. P. et al., J. Inorg. Biochem. 91, 542-553 (2002)). Small-scale reactions (400 μL) were conducted in 2 mL crimp vials containing degassed buffer (0.1 M potassium phosphate pH 8.0), enzyme (0.1-0.5% catalyst loading) and oxygen depletion system (10× stock solution containing 14,000 U/mL catalase, 1,000 U/mL glucose oxidase dissolved in 0.1 M KPi pH 8.0). Enzyme (P450 or P411) solution and oxygen depletion mixture were added to the vial with a small stir bar before crimp-sealing. […] Reactions were stirred at room temperature for 24 h under positive argon pressure.
Small-scale reactions (400 μL) were conducted in 2 mL crimp vials (Agilent Technologies, San Diego, Calif.) containing buffer (0.1 M potassium phosphate pH 8.0), enzyme (0.1-0.5% catalyst loading) and oxygen depletion system (10× stock solution containing 14,000 U/mL catalase, 1,000 U/mL glucose oxidase dissolved in 0.1 M KPi pH 8.0). Enzyme (P450 or P411) solution and oxygen depletion mixture were added to the vial with a small stir bar before crimp-sealing. […] In the meantime, the headspace of the sealed 2 mL reaction vial with the P450 solution was made anaerobic by flushing argon over the protein solution (with no bubbling). The buffer/reductant/glucose solution (270 μL) was syringed into the reaction vial with continuous argon purge of the vial headspace. An arylsulfonyl azide solution in DMSO (10 μL, 80 mM) was added to the reaction vial via a glass syringe, and the reaction was left stirring for 24 h at room temperature under positive argon pressure. […] Reactions were quenched by adding 30 μL 3 M HCl under argon. To the vials were then added acetonitrile (430 uL) and internal standard (o-toluenesulfonamide 10 mM in 50% acetonitrile 50% water, 1 mM final concentration). This mixture was then transferred to a microcentrifuge tube, and centrifuged at 17,000×g for 10 minutes. A portion (20 μL) of the supernatant was then analyzed by HPLC. For LC-MS analysis, the quenched reaction mixture was extracted twice with ethyl acetate (2×350 μL), dried under a light argon stream and resuspended in 50% water-acetonitrile (100 μL). For chiral HPLC the reactions were extracted as above with ethyl acetate, dried and resuspended in DMSO (100 μL) and then C18 purified as described above. The C18 purified material was dried, and resuspended in acetonitrile, and then injected onto the chiral HPLC system for analysis. Sultam formation was quantified comparison of integrated peak areas of internal standard and sultam at 220 nm to a calibration curve made using synthetically produced sultam and internal standard.
Purified enzymes were screened for activity in small scale reactions (400 μL) under anaerobic conditions as described above. Reactions were carried out using 0.5% mol of enzyme (10 μM) with respect to the triethylsulfonyl azide substrate 1 (2 mM). Standard reaction conditions described above were employed. Diethyl benzosultam product 3 (FIG. 18) was analyzed and quantified by reversed-phase HPLC (see above).
Small-scale reactions (400 μL total volume) were set up and worked up. Control reactions were performed with both the holoenzyme (BM3 with covalently linked reductase domain) and the isolated heme domain. […] Reactions of the complete system with heme domain (CS heme) included 2 mM Na2S2O4 rather than NADPH unless otherwise indicated in the table. […]

Assay [2] is described as follows: N—H insertion, aniline with ethyl diazo acetate (EDA). Particulars: protein 10 uM, EDA 8.5 mM, aniline 20 mM, Na2S2O4 10 mM, 12 h; for % Yield: product 4.3. An excerpt:
We have found a variety of P450 variants to be general catalysts for carbenoid N—H insertion. We combined aniline with EDA in the presence of a reductant (Na2S2O4) under argon atmosphere and tested the mixture with seven P450BM3 variants previously identified as competent catalysts for cyclopropanation (Coelho, P. et al., Science. 2013, 339, 307-310). In choosing this set of P450s, we hypothesized that cyclopropanation activity could correlate with ability to generate the iron-carbenoid intermediate that is also necessary for N—H insertion. Whereas wild type BM3 (WT-BM3 (SEQ ID NO:1), Table 20, entry 1) provided only trace amounts of the desired product (4.3), a few variants gave 4.3 in good yields after 12 h at room temperature. In particular, variant H2-5-F10 which is derived from a thermostable P450BM3 lineage (Lewis, J. C. et al. ChemBioChem, 2010, 11, 2502-2505) and contains 15 mutation from WT-BM3 (SEQ ID NO:1), formed 4.3 in 47% yield and 473 turnovers (TTN) using 0.1% protein relative to EDA (entry 7). […] In contrast, when 1 mol % of the isolated hemin prosthetic group was used as catalyst, the single and double insertion products were produced in a 3.5 to 1 ratio (with a total product yield of 51%).
A representative procedure for P450-catalyzed N—H insertion is as follows. To an unsealed crimp vial, 60 μL of a P450 solution (67 or 133 μM) was added and the vial was sealed. A 12.5 mM solution of sodium dithionite in phosphate buffer (0.1 M, pH=8.0) was degassed by bubbling with argon in a 6 mL crimp-sealed vial. The headspace of the 2 mL vials containing P450 solution were flushed with argon (no bubbling). The buffer/dithionite solution (360 μL) was then added to each reaction vial via syringe, and the gas lines were disconnected from the vials. 10 μL of an 800 mM stock of aniline was added via a glass syringe, followed by 10 μL of a 340 mM stock of EDA (both stocks in MeOH). The reaction vials were then placed in a tray on a plate shaker and left to shake at 40 rpm. The final concentrations of the reagents were typically: 20 mM aniline, 8.5 mM EDA, 10 mM Na2S2O4, and 10 or 20 μM P450. After 12 h at 25° C., the vials were removed from the shaker and uncapped and 1 mL of cyclohexane was added, followed by 20 μL of a 20 mM solution of phenethyl alcohol (internal standard). The mixture was transferred to a 1.5 mL Eppendorf tube and vortexed and centrifuged (13,000×g, 1 min.). The organic layer was dried over sodium sulfate if necessary then analyzed by GC, with comparison to an authentically prepared sample that has been verified by proton NMR ([…], Varian, CDCl3).
Substitution is well-tolerated on the aniline partner on both the ortho and para positions. Reactions were analyzed by a Shimadzu GC with FID detector and J&W HP-5 column (30 m×0.32 mm, 0.25 μm film) and calibrated to an independently prepared sample of each product using phenethyl alcohol as internal standard. Reaction of aniline and EDA was also performed in milligram scale without any organic cosolvent to provide 4.3 in 65% isolated yield.
Calibration curves were plotted as follows. Yields of N—H insertion products were determined using calibration curves made with independently synthesized standards that have been verified by proton NMR, with comparison to known literature data (Baumann, L. K. et al. Organometallics. 2007, 26, 3995-4002; Anding, B. J. et al. Organometallics. 2013, 32, 2599-2607). Two stock solutions of product were made at 160 mM and 40 mM. To four or five samples containing 380 μL of buffer, product was added from either of the stock solutions such at a final concentration of 0.5-8.0 mM in 400 μL was obtained. 20 μL of internal standard was added to each eppendorf tube, then 1 mL of cyclohexane was added and the tubes were vortexed and centrifuged (13,000 ×g, 30 seconds). The organic layer was then analyzed by GC. The ratio of the areas under the internal standard and product peaks were plotted against the concentration for each solution. […]

Assay [3] is described as follows: P450BM3 compilation plate screen (GC, cyclopropane peaks). The conditions noted are these: P450BM3 variants; for ee (cis): (R,S)-(S,R), chiral β-CDX GC; for de: diastereomeric excess = ([cis] − [trans])/([cis] + [trans]); for Absolute activity: sum of the area of the cyclopropane peaks over the area of the internal standard.

Positions count from the first letter of the chain named. Names may count otherwise.

B1: BM3-CIS: 9-10A TS + F87V, T268A (protein, listed as Bacillus megaterium)
chain: TIKEMPQPKTFGELKNLPLLNTDKPVQALMKIADELGEIFKFEAPGRVTRYLSSQRLIKEACDESRFDKNLSQALKFARDFAGDGLVTSWTHEKNWKKAHNILLPSFSQQAMKGYHAMMVDIAVQLVQKWERLNADEHIEVSEDMTRLTLDTIGLCGFNYRFNSFYRDQPHPFIISMVRALDEVMNKLQRANPDDPAYDENKRQFQEDIKVMNDLVDKIIADRKARGEQSDDLLTQMLNGKDPETGEPLDDGNIRYQIITFLIAGHEATSGLLSFALYFLVKNPHVLQKVAEEAARVLVDPVPSYKQVKQLKYVGMVLNEALRLWPTAPAFSLYAKEDTVLGGEYPLEKGDEVMVLIPQLHRDKTVWGDDVEEFRPERFENPSAIPQHAFKPFGNGQRACIGQQFALHEATLVLGMMLKHFDFEDHTNYELDIKETLTLKPKGFVVKAKSKKIPLGGIPSPSTEQSAKKVRKKAENAHNTPLLVLYGSNMGTAEGTARDLADIAMSKGFAPQVATLDSHAGNLPREGAVLIVTASYNGHPPDNAKQFVDWLDQASADEVKGVRYSVFGCGDKNWATTYQKVPAFIDETLAAKGAENIADRGEADASDDFEGTYEEWREHMWSDVAAYFNLDIENSEDNKSTLSLQFVDSAADMPLAKMHGAFSTNVVASKELQQPGSARSTRHLEIELPKEASYQEGDHLGVIPRNYEGIVNRVTARFGLDASQQIRLEAEEEKLAHLPLAKTVSVEELLQYVELQDPVTRTQLRAMAAKTVCPPHKVELEALLEKQAYKEQVLAKRLTMLELLEKYPACEMKFSEFIALLPSIRPRYYSISSSPRVDEKQASITVSVVSGEAWSGYGEYKGIASNYLAELQEGDTITCFISTPQSEFTLPKDPETPLIMVGPGTGVAPFRGFVQARKQLKEQGQSLGEAHLYFGCRSPHEDYLYQEELENAQSEGIITLHTAFSRMPNQPKTYVQHVMEQDGKKLIELLDQGAHFYICGDGSQMAPAVEATLMKSYADVHQVSEADARLWLQQLEEKGRYAKDVWAG
modifications: cytochrome P450NADPH-P-450 reductase precursor, cytochrome P450 (BM3), CYP102A1
notes: 9-10A TS + F87V, T268A
Turning to B1, the “TTN (C—H amination product 3)” value in assay [1] turned out to be 9. Besides, in assay [2], the TTn is reported as 363 and the “% Yield” value is 36%.

B2: H2-4-D4: 9-10A TS + F87V, L75A, M177A, L181A, T268A, L437A (protein, listed as Bacillus megaterium)
chain: B1 chain with L75A, M177A, L181A, L437A
modifications: cytochrome P450NADPH-P-450 reductase precursor, cytochrome P450 (BM3), CYP102A1
notes: 9-10A TS + F87V, L75A, M177A, L181A, T268A, L437A
Consider B2, for which, in assay [3], the “ee (cis)” value is −84, the de is on record as 57 and the Absolute activity is 0.05244. For the same molecule, in assay [2], the TTn is on record as 340 and the “% Yield” value worked out at 34%.

B3: H2A10: 9-10A TS + F87V, L75A, L181A, T268A (protein, listed as Bacillus megaterium)
chain: B1 chain with L75A, L181A
modifications: cytochrome P450NADPH-P-450 reductase precursor, cytochrome P450 (BM3), CYP102A1
notes: 9-10A TS + F87V, L75A, L181A, T268A
In the case of B3, in assay [3], the “ee (cis)” value is given as −94, the de was −8 and the Absolute activity is reported as 0.06642. Moreover, in assay [2], the TTn turned out to be 238 and the “% Yield” value stood at 24%.

Values taken from patent US20150267232A1, “IN VIVO AND IN VITRO CARBENE INSERTION AND NITRENE TRANSFER REACTIONS CATALYZED BY HEME ENZYMES” (California Institute of Technology, priority 2012, published 2015).
